Assays:
Test in all cases: cell-based or functional assay
HIV-1 Env of CAP210.E8 = HIV-1 Env of CAP210.E8 (HIV-1)
HIV-1 Env of 0260.v5.c36 = HIV-1 Env of 0260.v5.c36 (HIV-1)
HIV-1 Env of UG037.8 = HIV-1 Env of UG037.8 (HIV-1)
HIV-1 Env of DU422.01 = HIV-1 Env of DU422.01 (HIV-1)
HIV-1 Env of ZM135.10a = HIV-1 Env of ZM135.10a (HIV-1)
HIV-1 Env of Q168.a2 = HIV-1 Env of Q168.a2 (HIV-1)
HIV-1 Env of CNE3 = HIV-1 Env of CNE3 (HIV-1)
HIV-1 Env of DU172.17 = HIV-1 Env of DU172.17 (HIV-1)
HIV-1 Env of PVO.04 = HIV-1 Env of PVO.04 (HIV-1)
HIV-1 Env of 6535.3 = HIV-1 Env of 6535.3 (HIV-1)
HIV-1 Env of RW020.2 = HIV-1 Env of RW020.2 (HIV-1)
HIV-1 Env of Q842.d12 = HIV-1 Env of Q842.d12 (HIV-1)
HIV-1 Env of CM244.ec1 = HIV-1 Env of CM244.ec1 (HIV-1)
HIV-1 Env of BG505.w6m = HIV-1 Env of BG505.w6m (HIV-1)
HIV-1 Env of TRO.11 = HIV-1 Env of TRO.11 (HIV-1)
HIV-1 Env of TH976.17 = HIV-1 Env of TH976.17 (HIV-1)
HIV-1 Env of Q461.e2 = HIV-1 Env of Q461.e2 (HIV-1)
HIV-1 Env of REJO.67 = HIV-1 Env of REJO.67 (HIV-1)
HIV-1 Env of CAP256.SU = HIV-1 Env of CAP256.SU (HIV-1)
HIV-1 Env of Q23.17 = HIV-1 Env of Q23.17 (HIV-1)
HIV-1 Env of C1080.c3 = HIV-1 Env of C1080.c3 (HIV-1)
HIV-1 Env of CAAN.A2 = HIV-1 Env of CAAN.A2 (HIV-1)
HIV-1 Env of WITO.33 = HIV-1 Env of WITO.33 (HIV-1)
HIV-1 Env of CAP256.PI = HIV-1 Env of CAP256.PI (HIV-1)
HIV-1 Env of TRJO.58 = HIV-1 Env of TRJO.58 (HIV-1)
HIV-1 Env of Q769.d22 = HIV-1 Env of Q769.d22 (HIV-1)
HIV-1 Env of ZM214.15 = HIV-1 Env of ZM214.15 (HIV-1)
HIV-1 Env of 6405.v4.c34 = HIV-1 Env of 6405.v4.c34 (HIV-1)
HIV-1 Env of Q259.d2.17 = HIV-1 Env of Q259.d2.17 (HIV-1)
HIV-1 Env of RHPA.7 = HIV-1 Env of RHPA.7 (HIV-1)
HIV-1 Env of THRO.18 = HIV-1 Env of THRO.18 (HIV-1)
HIV-1 Env of SC422.8 = HIV-1 Env of SC422.8 (HIV-1)
HIV-1 Env of CAP244.D3 = HIV-1 Env of CAP244.D3 (HIV-1)
Env of SIVmac251.30 = Env of SIVmac251.30 (SIV (SIVmac251))
HIV-1 Env of QH0692.42 = HIV-1 Env of QH0692.42 (HIV-1)
HIV-1 Env of ZM109.4 = HIV-1 Env of ZM109.4 (HIV-1)
HIV-1 Env of MB201 = HIV-1 Env of MB201 (HIV-1)
HIV-1 Env of ZM197.7 = HIV-1 Env of ZM197.7 (HIV-1)
HIV-1 Env of MB539.2B7 = HIV-1 Env of MB539.2B7 (HIV-1)
HIV-1 Env of AC10.29 = HIV-1 Env of AC10.29 (HIV-1)
HIV-1 Env of 96ZM651.02 = HIV-1 Env of 96ZM651.02 (HIV-1)
HIV-1 Env of DU156.12 = HIV-1 Env of DU156.12 (HIV-1)
HIV-1 Env of ZM249.1 = HIV-1 Env of ZM249.1 (HIV-1)
HIV-1 Env of KER2008.12 = HIV-1 Env of KER2008.12 (HIV-1)

B1: CAP256-VRC26.25 (antibody, V domains shown)
VH: QVQLVESGGGVVQPGTSLRLSCAASQFRFDGYGMHWVRQAPGKGLEWVASISHDGIKKYHAEKVWGRFTISRDNSKNTLYLQMNSLRPEDTALYYCAKDLREDECEEWWSDYYDFGKQLPCAKSRGGLVGIADNWGQGTMVTVSS
VL: QSVLTQPPSVSAAPGQKVTISCSGNTSNIGNNFVSWYQQRPGRAPQLLIYETDKRPSGIPDRFSASKSGTSGTLAITGLQTGDEADYYCATWAASLSSARVFGTGTQVIVLG
B1 was tested, and the “IC50 (neutralization, TZM-bl)” value (HIV-1 Env of CAP210.E8) was 0.001 µg/mL, the “IC50 (neutralization, TZM-bl)” value (HIV-1 Env of 0260.v5.c36) was 6.54 µg/mL and the “IC50 (neutralization, TZM-bl)” value (HIV-1 Env of UG037.8) was > 50 µg/mL. The “IC50 (neutralization, TZM-bl)” value (HIV-1 Env of DU422.01) was 0.003 µg/mL, the “IC50 (neutralization, TZM-bl)” value (HIV-1 Env of ZM135.10a) was > 50 µg/mL and the “IC50 (neutralization, TZM-bl)” value (HIV-1 Env of Q168.a2) was 0.001 µg/mL. The “IC50 (neutralization, TZM-bl)” value (HIV-1 Env of CNE3) was > 50 µg/mL, the “IC50 (neutralization, TZM-bl)” value (HIV-1 Env of DU172.17) was > 50 µg/mL and the “IC50 (neutralization, TZM-bl)” value (HIV-1 Env of PVO.04) was 0.072 µg/mL. For the same binder, the “IC50 (neutralization, TZM-bl)” value (HIV-1 Env of 6535.3) was > 50 µg/mL, the “IC50 (neutralization, TZM-bl)” value (HIV-1 Env of RW020.2) was > 50 µg/mL and the “IC50 (neutralization, TZM-bl)” value (HIV-1 Env of Q842.d12) was 0.005 µg/mL. For the same binder, the “IC50 (neutralization, TZM-bl)” value (HIV-1 Env of CM244.ec1) was 0.092 µg/mL, the “IC50 (neutralization, TZM-bl)” value (HIV-1 Env of BG505.w6m) was 0.001 µg/mL and the “IC50 (neutralization, TZM-bl)” value (HIV-1 Env of TRO.11) was > 50 µg/mL. The “IC50 (neutralization, TZM-bl)” value (HIV-1 Env of TH976.17) was 0.106 µg/mL, the “IC50 (neutralization, TZM-bl)” value (HIV-1 Env of Q461.e2) was 0.007 µg/mL and the “IC50 (neutralization, TZM-bl)” value (HIV-1 Env of REJO.67) was > 50 µg/mL. For the same binder, the “IC50 (neutralization, TZM-bl)” value (HIV-1 Env of CAP256.SU) was 0.001 µg/mL, the “IC50 (neutralization, TZM-bl)” value (HIV-1 Env of Q23.17) was 0.001 µg/mL and the “IC50 (neutralization, TZM-bl)” value (HIV-1 Env of C1080.c3) was 0.004 µg/mL. The “IC50 (neutralization, TZM-bl)” value (HIV-1 Env of CAAN.A2) was > 50 µg/mL, the “IC50 (neutralization, TZM-bl)” value (HIV-1 Env of WITO.33) was > 50 µg/mL and the “IC50 (neutralization, TZM-bl)” value (HIV-1 Env of CAP256.PI) was 1.33 µg/mL. For the same binder, the “IC50 (neutralization, TZM-bl)” value (HIV-1 Env of TRJO.58) was > 50 µg/mL, the “IC50 (neutralization, TZM-bl)” value (HIV-1 Env of Q769.d22) was > 50 µg/mL and the “IC50 (neutralization, TZM-bl)” value (HIV-1 Env of ZM214.15) was 0.006 µg/mL. For the same binder, the “IC50 (neutralization, TZM-bl)” value (HIV-1 Env of 6405.v4.c34) was > 50 µg/mL, the “IC50 (neutralization, TZM-bl)” value (HIV-1 Env of Q259.d2.17) was 0.002 µg/mL and the “IC50 (neutralization, TZM-bl)” value (HIV-1 Env of RHPA.7) was > 50 µg/mL. The “IC50 (neutralization, TZM-bl)” value (HIV-1 Env of THRO.18) was 19.8 µg/mL, the “IC50 (neutralization, TZM-bl)” value (HIV-1 Env of SC422.8) was 47.2 µg/mL and the “IC50 (neutralization, TZM-bl)” value (HIV-1 Env of CAP244.D3) was > 50 µg/mL. The “IC50 (neutralization, TZM-bl)” value (Env of SIVmac251.30) was > 50 µg/mL, the “IC50 (neutralization, TZM-bl)” value (HIV-1 Env of QH0692.42) was > 50 µg/mL and the “IC50 (neutralization, TZM-bl)” value (HIV-1 Env of ZM109.4) was 0.001 µg/mL. The “IC50 (neutralization, TZM-bl)” value (HIV-1 Env of MB201) was > 50 µg/mL, the “IC50 (neutralization, TZM-bl)” value (HIV-1 Env of ZM197.7) was 0.002 µg/mL and the “IC50 (neutralization, TZM-bl)” value (HIV-1 Env of MB539.2B7) was 0.186 µg/mL. The “IC50 (neutralization, TZM-bl)” value (HIV-1 Env of AC10.29) was 0.077 µg/mL, the “IC50 (neutralization, TZM-bl)” value (HIV-1 Env of 96ZM651.02) was 0.173 µg/mL and the “IC50 (neutralization, TZM-bl)” value (HIV-1 Env of DU156.12) was 0.002 µg/mL. The “IC50 (neutralization, TZM-bl)” value (HIV-1 Env of ZM249.1) was 0.001 µg/mL and the “IC50 (neutralization, TZM-bl)” value (HIV-1 Env of KER2008.12) was 0.005 µg/mL.

From US20200199204A1 (UNITED STATES OF AMERICA AS REPRESENTED BY THE SECRETARY …, published 2020)
